Assay results published in patent US20240294651A1 (KYMAB, published 2024).

Legend:
[1] = target: T1, human CXCR7 (human, UniProt P25106 1-362); assay: flow cytometry on CHO-S cells expressing human CXCR7, anti-mouse Alexa Fluor 647 secondary antibody, GeoMean (647 nm)
T1 construct: Expressed on CHO-S cells

[2] = target: T2, CXCR4 StaR nanodiscs; assay: SPR (Biacore T200), IgG4-PE antibody captured by anti-IgG on CM5, CXCR4 StaR nanodiscs at 250 nM as analyte, 25 C, 1:1 model; N = 1
T2 construct: Purified receptor in lipid-protein nanodiscs; also called StaR CXCR4; thermostabilised CXCR4
Description: (§1) Anti-IgG antibodies were immobilised on chip CM5 (GE Healthcare) by amine coupling. […] A channel with no anti-CXCR4 antibodies captured was used as a reference. […] The blank-subtracted sensorgrams were fitted to the 1:1 interaction model using the Biacore T200 evaluation software. The assay was run at 25° C. using 0.01 M HEPES pH 7.4, 0.15 M NaCl as running buffer.

[3] = target: T1, human CXCR7; assay: flow cytometry on CHO-S cells expressing human CXCR7, Alexa Fluor 647 secondary antibody, GeoMean (647 nm)
Description: CXCR7 expressing CHO-S cells were plated at 100 μL/well of cells at 1 million of cells/mL (0.1 million of cells/well) into a 96 well V-bottom plate (Greiner). Plates were centrifuged at 300×g for 3 min at 4° C. and supernatant discarded. […] Primary antibody dilutions were added to cells (100 μL/well) and cell pellets resuspended by pipetting. Plate was incubated for 1 h at 4° C. 100 μL/well of PBS, was added and plates centrifuged at 300×g for 3 min at 4° C. and supernatant discarded. This step was repeated twice. […] Cells were resuspended by pipetting. Plate was incubated for 1 h at 4° C. 100 μL/well of PBS, was added and plates centrifuged at 300×g for 3 min at 4° C. and supernatant discarded. This step was repeated twice. Finally, cells were resuspended in 100 μL/well of PBS and analysed on CytoFLEX (Beckman Coulter).
Binding of antibodies to CXCR7 expressed on CHO-S cells was analysed by gating the main cell population using forward and side scatter (Flow Jo, Flow Jo LLC) to allow for doublet discrimination.

[4] = target: T3, human CXCR4 (cell-expressed) (human, UniProt P61073 1-352); assay: cell-based or functional assay
[5] = target: T4, cynomolgus CXCR4 (cynomolgus monkey, UniProt Q28474 1-352); assay: flow cytometry on CHO-S cells expressing cynomolgus CXCR4
T4 construct: also called cyno CXCR4; cynomolgus monkey CXCR4
Description: (§2) Cynomolgus monkey CXCR4 expressing CHO-S cells were plated at 100 uL/well of cells at 1 million of cells/mL (0.1 million of cells/well) into a 96 well V-bottom plate (Greiner). Plates were centrifuged at 300×g for 3 min at 4° C. and supernatant discarded. […] Primary antibody dilutions were added to cells (50 μL/well) and cell pellets resuspended by pipetting. Plates was incubated for 1 h at 4° C. 100 μL/well of PBS, was added and plates centrifuged at 300×g for 3 min at 4° C. and supernatant discarded. This step was repeated twice. […] Cells were resuspended by pipetting. Plates were incubated for 1 h at 4° C. 100 μL/well PBS, was added and plates centrifuged at 300×g for 3 min at 4° C. and supernatant discarded. This step was repeated twice. Finally, cells were resuspended in 100 μL/well of PBS and analysed on CytoFLEX (Beckman Coulter).
(§3) Binding of antibodies to cynomolgus CXCR4 expressed on CHO-S cells was analysed by gating the main cell population using forward and side scatter (Flow Jo, Flow Jo LLC) to allow for doublet discrimination. […] EC₅₀ values were calculated by transforming the data and fitting a 4-parameter logistic regression curve to each antibody titration.

[6] = target: T2, CXCR4 StaR nanodiscs; assay: SPR (Biacore T200), IgG4-PE antibody captured by anti-IgG on CM5, CXCR4 StaR nanodiscs at 250 nM as analyte, 25 C, 1:1 model; N = 2
Description: as §1

[7] = target: T3, human CXCR4 (cell-expressed); assay: cell-based or functional assay; remark: listed apart in the source
[8] = target: T3, human CXCR4 (cell-expressed); assay: cell-based or functional assay; remark: listed apart in the source
[9] = target: T4, cynomolgus CXCR4; assay: cell-based or functional assay
[10] = target: T5, terbium-labelled SNAP-CXCR4 on HEK-293 cells (Cisbio C1TT1CXCR4) (human, UniProt P61072 1-352 (Pan troglodytes entry), terbium label on the SNAP tag); assay: TR-FRET (Tag-lite) competition with AlexaFluor 647-CXCL12 on terbium-labelled SNAP-CXCR4 HEK-293 cells
T5 construct: Bought assay-ready cells; also called CXCR4 expressing cells; not shown: SNAP tag

[11] = target: T3, human CXCR4 (cell-expressed); assay: cell-based or functional assay; remark: listed apart in the source
[12] = target: T3, human CXCR4 (cell-expressed); assay: cell-based or functional assay; remark: listed apart in the source
[13] = target: T3, human CXCR4 (cell-expressed); assay: cell-based or functional assay; remark: listed apart in the source
[14] = target: T3, human CXCR4 (cell-expressed); assay: cell-based or functional assay; remark: listed apart in the source
[15] = target: T4, cynomolgus CXCR4; assay: flow cytometry on CHO-S cells expressing cynomolgus CXCR4, anti-human Alexa Fluor 647 secondary antibody, GeoMean (647 nm)
Description: as §2, §3

T4 sequence (Q28474 whole entry): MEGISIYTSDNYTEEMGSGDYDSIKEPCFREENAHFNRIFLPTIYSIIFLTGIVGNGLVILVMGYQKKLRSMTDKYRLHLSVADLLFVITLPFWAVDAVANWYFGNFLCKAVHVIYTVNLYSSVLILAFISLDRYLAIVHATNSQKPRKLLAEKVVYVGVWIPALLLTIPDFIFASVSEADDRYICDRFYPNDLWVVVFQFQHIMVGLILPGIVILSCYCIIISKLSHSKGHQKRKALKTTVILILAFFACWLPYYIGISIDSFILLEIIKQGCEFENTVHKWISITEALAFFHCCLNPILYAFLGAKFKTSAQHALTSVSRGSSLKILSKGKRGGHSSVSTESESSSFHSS
T3 sequence (P61073 whole entry): as the sequence (Q28474 whole entry) above, with I24M, H35N, R38K, K146R, S176N counted along it
T5 sequence (P61072 whole entry): as the sequence (Q28474 whole entry) above, with I24M, H35N, R38K, K146R, S176N counted along it
T1 sequence (P25106 whole entry): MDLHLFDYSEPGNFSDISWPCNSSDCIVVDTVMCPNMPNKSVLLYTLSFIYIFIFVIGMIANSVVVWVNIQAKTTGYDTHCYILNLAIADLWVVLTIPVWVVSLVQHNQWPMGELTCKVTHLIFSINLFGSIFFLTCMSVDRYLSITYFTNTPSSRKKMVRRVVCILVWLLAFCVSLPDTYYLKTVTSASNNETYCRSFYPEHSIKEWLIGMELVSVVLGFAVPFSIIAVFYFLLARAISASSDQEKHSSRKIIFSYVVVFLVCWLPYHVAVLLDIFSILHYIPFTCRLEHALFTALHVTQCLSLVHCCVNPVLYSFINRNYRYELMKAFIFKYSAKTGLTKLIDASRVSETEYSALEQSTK

Row | Binder | Kd [2] [nM] | koff [2] [s⁻¹] | kon [2] [M⁻¹ s⁻¹] | binding result [3] | % Max Inhibition, cAMP HTRF assay, CXCR4 BacMam HEK-293 cells [4] [%] | IC50, cAMP HTRF assay, CXCR4 BacMam HEK-293 cells, 5.5 nM CXCL12 [4] [nM] | EC50 [5] [nM] | % Max Inhibition, beta-arrestin reporter assay, Tango CXCR4-bla U2OS cells [7] [%] | IC50, beta-arrestin reporter assay, Tango CXCR4-bla U2OS cells, 30 nM CXCL12 [7] [nM] | IC50 n = 1, Jurkat chemotaxis towards 30 nM CXCL12 (IncuCyte) [8] [nM] | IC50 n = 2, Jurkat chemotaxis towards 30 nM CXCL12 (IncuCyte) [8] [nM] | IC50 n = 3, Jurkat chemotaxis towards 30 nM CXCL12 (IncuCyte) [8] [nM] | Mean IC50, Jurkat chemotaxis towards 30 nM CXCL12 (IncuCyte) [8] [nM] | % Maximum Inhibition, cAMP HTRF assay, cyno CXCR4 BacMam HEK-293 cells [9] [%] | IC50, cAMP HTRF assay, cyno CXCR4 BacMam HEK-293 cells [9] [nM] | % Max Inhibition [10] [%] | IC50 [10] [nM] | Max Signal (Total Overlap Object Area), internalisation on Ramos cells, live-cell imaging [11] [µm^2 per image] | % effect (remaining % of CXCL12 response), DMR assay, human T-cells [12] [%] | IC50, label-free DMR assay, isolated human T-cells, EC80 CXCL12 [12] [nM] | further results
1 | Anti-CXCR7 mAb #11G8 (R&D Systems) (antibody, V domains shown) VH: EVKLVESGGDLVQPGGSLKLSCATSGFTFSDYYMFWVRQTPEKRLEWVAYITNGGDRSYYSDTVTGRFIISRDNAKNTLYLQMSRLKSEDTAMYYCARQGNWAAWFVYWGQGTLVTVSA VL: DVLMTQTPLSLPVSLGDQASISCRSSHYIVHSDGNTYLEWYLQKPGQSPKLLIYKVSNRFSGVPDRFSGSGSGTDFTLKISRVEAEDLGIYYCFQGSHVPLTFGAGTKLELKR | – | – | – | – | – | – | – | – | – | – | – | – | – | – | – | – | – | – | – | – | EC50 (read off the curve) [1]: ~10 nM
2 | CL-82558 (antibody, human IgG4 S228P, kappa, V domains shown, Tested in human IgG4-PE format; also called CL-82558 (IgG4-PE format)) VH: QVQLQESGPGLVKPSQTLSLTCTVSGGSISSGGYYWSWIRQVPGKGLEWIGYISYSGNTFYSPSLKSRVTISVDTSENKFSLRLTSVTAADTAVYFCARDRRIPMLRGVKGYYYGLDVWGQGTTVTVSS VL: DIVMTQSPLSLPVIPGEPASISCRSSQSLLHRNGYKYLDWYLQKPGQSPQLLIYLGSNRASGVPARFSGSGSGTDFTLKISRVEAEDVGVYYCMQALQTPWTFGQGTKVEIKR | 3.9 | 0.00047 | 120000 | no binding (tested: log(M) about -6.9 (about 1.2e-7 M)) | 94 | 29 | 1.1 | 99.5 | 0.07 | 0.72 | 0.94 | 0.71 | 0.79 | 83 | 1.3 | 101 | 0.57 | 23900 | 4.3 | 1.72 | Kd [6]: 1.7 nM; koff [6]: 0.00013 s⁻¹; kon [6]: 77000 M⁻¹ s⁻¹; % of max migration at 120 nM Ab, primary naïve T-cell trans-well migration [13]: 6.34%; IC50 of antibody in presence of 30 nM CXCL12, human T-cell transwell chemotaxis [14]: 0.14 not printed (nM assumed)
3 | CL-148729 (antibody, human IgG4 S228P, lambda, V domains shown, Tested in human IgG4-PE format) VH: AVQLVESGGGLVQPGGSLKLSCAASGFTFSGSTMHWVRQASGRGLEWVGRIRSKADSYATAYSASVKGRFTISRDDSKKMAYLQMNSLKTEDMAVYYCTRSGDYWGQGTLVTVSS VL: QSVLTQPPSVSAAPGQKVTISCSGSSSNIGKNYVAWYQQLPGTAPKLLIYDTNKRPSGIPDRFSGSKSGTSATLDITGLQTGDEADYYCGTWDISLSVGWLFGGGTKVTVLG | – | – | – | – | 114 | 6 | – | 99.6 | 0.11 | – | – | – | – | – | – | – | – | – | – | – | binding result [15]: no binding (tested: log(M) about -6.9 (about 1.2e-7 M))
4 | CL-82658 (antibody, human IgG4 S228P, kappa, V domains shown, Tested in human IgG4-PE format; also called CL-82658 (IgG4-PE format)) VH: QVQLVESGGGVVQPGRSLRLSCAASGFSFSSYGMHWVRQAPGKGLEWVAVISYDGSNKYYADSVKGRFTISRDNSKNTLYLQMNSLRGEDTAVYYCSKGSLTPRRGYYYSYGMDVWGQGTTVTVSS VL: DIQMTQSPSSLSASVGDRVTITCRASQGIRNDLSWYQQKPGKAPKRLIYAASSLQSGVPSRFSGSGSGTEFTLTISSLQPEDFATYYCLQHNGYPFTFGPGTKVDIKR | 9.6 | 0.0005 | 52000 | no binding (tested: log(M) about -6.9 (about 1.2e-7 M)) | 98 | 23 | 4.2 | 100 | 0.35 | 0.22 | 0.31 | 0.21 | 0.25 | 80 | 1 | 100 | 1.04 | 18900 | -0.6 | 1.54 | % of max migration at 120 nM Ab, primary naïve T-cell trans-well migration [13]: -2.08%; IC50, primary naïve T-cell trans-well migration [13]: 0.99 nM; IC50 of antibody in presence of 30 nM CXCL12, human T-cell transwell chemotaxis [14]: 0.18 not printed (nM assumed)
